Source: US20050048055A1

Target: mouse CD40 on BALB/c thymocytes (mouse) (UniProt P27512)
Experiment: cell-based or functional assay

Sequence of UniProt P27512 (P27512 20-289): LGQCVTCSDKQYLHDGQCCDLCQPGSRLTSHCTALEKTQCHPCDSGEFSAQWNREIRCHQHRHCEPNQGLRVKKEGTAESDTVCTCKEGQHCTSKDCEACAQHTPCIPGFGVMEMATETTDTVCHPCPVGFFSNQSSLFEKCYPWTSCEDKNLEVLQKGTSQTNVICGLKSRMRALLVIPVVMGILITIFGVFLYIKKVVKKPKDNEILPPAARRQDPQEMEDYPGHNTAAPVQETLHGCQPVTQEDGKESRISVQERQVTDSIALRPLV

## rat IgG anti-mouse CD40, 1C10 (antibody)
  increase in Vα8 expression in gated DP thymocytes: 12%
  percent Vα11+ thymocytes: 3.3%
